Results reported in the DeepSol protein solubility set.

Test: soluble on expression in E. coli; label from the status in PepcDB or PDB records

Row | Sequence | soluble on expression in E. coli
1 | MSLNEHKHNYNMKINCLLALALSASSLAAQDAVIRVDAGKVENKITPYLYGACMEDVNHEIYGGLYDQKIFGESFEEPVSMDNFIGFTRCEGVWKLQDGQLSVQAHPGAKLVYDDTQLSDGTVGVDLKFTNGTSSSNNAGLLLRVGEYGGGADNFDGYEVSLFADGKRLLLGKHLHNWQELKTTPVDVDPMQWNRMEVKLDGDELVILLNDCEVLRFEDRDTGLRNGKVAFRNWGADVSYRSLTIGSNTPVKLLTKATPQVSGMWDAFADLTAAAVYKQIADKPFHGRYAQEIEYLVGTGKVGIANRSLNRWGISVRQGEKKTGSLYLKGKAEVRVALQSVDGEKEYAVQCIRANAGDWKKYTFELTPDKTDENARLAIYLEEKGRIQVDMVTLMNGADRQFCGLPLRNDIGQAMVDQGLRFLRYGGTMVNAPEYRFKKMIGDRAERPPYKGHWYTYSTNGFGIEDFLHFCEKAGFMPAYAVNVEESAQDMADMIEYLNGSVDTKWGKKRAENGHPEPYGLKYLEIGNEEVIWGDIEADYQHYIDRFNDIYEAVHAKDPEVQFIHSAWWRPESPNMEKVFKALDGKAAYWDYHPWTDDLGSHVNIDRELTDMKAKFLKWNPKTSMRCAIFEENGNLHNVQRAIVHATVQNVVRRHGDFILTTCAANALQPYLQNDNGWDQGQIFFTSGQVWGMPTFYAQQMSSAHHHPLRLWSETVGELDMTATTNEARDEVILHVVNTSSEVRETQVSLSGFIPKGNMEIYTLSGELNDENLPDTPTWILPKATWKQAPGSDFTYSFPGYSYTIVVLKEGHHHHHH | soluble
2 | MKPALHAIDATLPAPPTYTPAGNECALFEHAWKRRVPLLLKGPTGCGKTRFVAHMAARLGLPLFTVSCHDDLTAADLTGRYLLKGGETVWVDGPLTRAVRQGGICYLDEVVEARKDVAVVLHPLADDRRVLPLERTGEELQAPPHFMLVVSYNPGYQSLLKALKPSTRQRFAAIEFGFLAPEQEIAVVAAESGLPSERVAPLVALAGRLRKLKGHDLEEGVSTRLLVYCASLISEGLPVRDAVLAGLIEPLTDDADVKAALIEVAGVVIGLEHHHHHH | soluble
3 | MVSLSDLASYPICRRCAGRIFAMVGTGLTNLERGSMLEFSIKCEKNDPEFNFADPQNCEICHGIFDKFSVFLSLVEDKLKEIEYSTFVVGSVFPKEWIELENKIQEAFGAHGESIKKEFNREFGKYITAKTGKEYRKEDPDITIAVNVEYEFVNVSIKSLFIYGKYRKYRRDMPQTRWIHKKDGDSIESIIGEAALRIAGGKNYYLHGSGREDVDVRMLGNGREFVIEVEAPIMRTFDLSILSETVNRSMKGVEIFDLSFVDRKTVKEIKEEKHSKVYDCIIEGDTDIDKLKLEEACTEMNGKNIYQRTPLRVAQRRSDLIRTRKIERMELVAVEGKEAEIVVQAEAGTYIKELISGDSGRTNPSLSSKYGSQLNVKELDVIKICRGELEHHHHHH | not soluble
4 | SMSTKGTILVTGGAGYIGSHTAVELLAHGYDVVIADNLVNSKREAIARIEKITGKTPAFHETDVSDERALARIFDAHPITAAIHFAALKAVGESVAKPIEYYRNNLDSLLSLLRVMRERAVKRIVFSSSATVYGVPERSPIDETFPLSATNPYGQTKLMAEQILRDVEAADPSWRVATLRYFNPVGAHESGLIGEDPAGIPNNLMPYVAQVAVGKLEKLRVFGSDYPTPDGTGVRDYIHVVDLARGHIAALDALERRDASLTVNLGTGRGYSVLEVVRAFEKASGRAVPYELVARRPGDVAECYANPAAAAETIGWKAERDLERMCADHWRWQENNPRGFV | soluble
5 | MGSSHHHHHHGSSNILIINGAKKFAHSNGQLNDTLTEVADGTLRDLGHDVRIVRADSDYDVKAEVQNFLWADVVIWQMPGWWMGAPWTVKKYIDDVFTEGHGTLYASDGRTRKDPSKKYGSGGLVQGKKYMLSLTWNAPMEAFTEKDQFFHGVGVDGVYLPFHKANQFLGMEPLPTFIANDVIKMPDVPRYTEEYRKHLVEIFG | soluble
6 | QSFWEEIAPPFISNEPNVKYIIPNMGIDSKGTIYVTVTKRIQQGANYTSEQLGMYYRPLGDNEQWWKHDPYFDDKIVADIQTDAYGRVYVCTTSSRDQEYQLYINEQNEWRCIFKTSVSTYEHGMAVFRSSTGVTYIGTRHHIFASGVNDFEFNTIYEDSTPMSCRFAEATNSGTIYLALMHETTMSTTILTYQNGEFVDISESELSNSIIASMCSNKEGD | not soluble
7 | MSLPQKSKVMHIARTLTGSTTQDEGQERQEAKTQDCQEDKRPETLVKGNGNNMECSRLREKQGVLIANRDGGTR | not soluble
8 | MGSDKIHHHHHHMKNLPSLKNLYYLVHLHQEQNFNRAAKMCFVSQSTLSSGIQNLEEQLGYQLIERDHKSFMFTAIGEEVVERARNILTNVDDLVELVKNQGEPMTGEIRLGCIPTIAPFLLSRVVKLCQQDYPKLSLLLKEDTTERLLDALAKGELDLLILALPVDTSGFHSMKVGIDPFKMVMHKEVSQQFLQPIDYQKMPDESIFLLQAEHCITGHAITACQLGDSAKINPFAATSLHTLVQMVNSKLGTTFLPQMAIDTGILTDTDLVAMDPPGEAPYRDIGLVWRQTTSRISTFRTLGLAIQQKLLAQSLPS | not soluble
9 | MDMNVEIFAGIVNNPLTKKALRNLSGSCKTCGDKRIKIAIDYALGYRSDACWKCRAAAKVVKKVIEAGGRAFNVDMNEIREKFRDAYWRKGLASVIKGIAHFGVRKPFVPGAPFQVVWDITYSCNLRCKHCYATAGKPLQDELTTDEALETIDKLDRLGVTIIAFSGGEPLVRRDIFELTRYAAEKGIYVAIATNGTLITEEIAKRMKENGVGYVQISLDGMKETHEAFRGIRGCFDKTVEGIRNAVKTGLFVNVSMTVTRYNYHEVPKVVELCEKLGVNWFMHYNFIPTGRGREIVEADITPEQREELLKWLYEKNYSSNISLLSTAPQFARVALQCQGEIVPTHFYNVNAGERLKELAEFIGGCGAGRFYFAIKANGDIQPCVFFPLKVGNVREDDLEELWLHNHVFEDLRDKDILEGCGSCGYRYVCGGCRARAYNYFGDYTKPDPGCVNNRRWWERISKIEVRA | not soluble
10 | MGSDKIHHHHHHMDIRVLRYFVVIAQEQNISRAATLLNVSQPALSRQIADLEDELGTKLFTRAHRHIQLTQEGHYLLERALQIIGLVDKTTYNLQKQDVVSGTLDIGAGESVGIMPVMEAAQQIMRQYPDVRVNLRSADAEPILADLDAGILEFGIIMGNRPLNNYNTLVLPAKNHWCAIMRADEPLAQQKEIRPIDLVGRPLITSRQAYKHGLFQKWSNTLYDQLNFVGTFNLAFNGSLLVKTGAAIALLYDQLVDVSPTSGLVARPLNPDMSEANTLIWSKNRNLPNLNRLFLDTLQKNLAQQGGSDA | not soluble
11 | MAFLRSMWGVLSALGRSGAELCTGCGSRLRSPFSFVYLPRWFSSVLASCPKKPVSSYLRFSKEQLPIFKAQNPDAKTTELIRRIAQRWRELPDSKKKIYQDAYRAEWQVYKEEISRFKEQLTPSQIMSLEKEIMDKHLKRKAMTKKKELTLLGKPKRPRSAYNVYVAERFQEAKGDSPQEKLKTVKENWKNLSDSEKELYIQHAKEDETRYHNEMKSWEEQMIEVGRKDLLRRTIKKQRKYGAEEC | soluble
12 | ANRHPAKVVSTRYFPQARVMELVLAPSNNGQGKPWQGHKAGQFAYVRFGNEDPHPFTIVSGEHEPEVRFLIKELGDFTTDLYHRVKIGEEVMVEGPYGRLA | not soluble
13 | MSGPVRTRRILEELGPTYIKLGQLLSMRRDLVPLEYAAEFSKLQDDAPSFGFEEVELIIREELGLPVEDLFESFEKKPLACASIGQVHRAKLKNGDDVVVKVQRPGIKEVIESDLDIMYSLSRLLTEHIPEARLYRPVELVDELSRSILAEIDYSQEGWNTDRFAENFKDSEQIHIPKVYWDYTGTRVLTLEYIEGIKGGRVDLLEKLEHHHHHH | not soluble
14 | MHAFTTERLLIRPLISEDEHFYCYQYTDKKMMRIVGEPLTQEQASAAFHRALKANNLEQDTVRTWAIVDKAANDIIGTQALSWLATRQTTKPSSSPIEQVEIGIMLATRANGKLLPEEAVSAIMEYGFKQLNIGRINAFYANKNRATQRILKKIGYIFEPCLQDNTTDNGYQYFEQHQWSGVIITQLFPEEIEIKEPTVND | not soluble
15 | MYKIVTVKDVVRIPPRMFTMDPKEAAMLVLRDTYEGTYDRDEGVILSIVEVKEVGDGIIVPGDGATYHEVVFDVLVWEPKRDEVVEGTVVDVVPFGAFIRIGPMDGLVHISQLMDDYVVYDERNKQFVGKEKKYLLKIGDAVRARIITVSPKSRVIRENRIGLTMRQPGLGKFEWIEKEKRKEKEGKK | soluble
